Test results from PMC5103180.

What was measured:
[1] = target: ATS‐C fragment of PfEMP1 variant PFL0030c (VAR2CSA) (Plasmodium falciparum); assay: fluorescence polarisation; 500 nM 5-FAM-labelled ATS-C variants titrated with unlabelled PFE1605w PHIST domain; 20°C; 50 mM NaCl, 20 mM Na2HPO4 pH 6.5; single-site model
[2] = target: PFE1605w‐C (Plasmodium falciparum); assay: fluorescence polarisation; 0.5 μM 5-FAM-labelled PFE1605w-C titrated with unlabelled band 3 cytosolic domain (or BSA as negative control); 20°C; 50 mM NaCl, 20 mM Na2HPO4 pH 7.0; single-site model

Row | Substance | Kd [1] [µM] | Kd [2] [µM]
1 | PFE1605w PHIST domain (domain or fragment) | 90 | –
2 | band 3 cytosolic domain (from UniProt P02730 1-379) (domain or fragment) | – | 1.5
